Test results as given in article PMC7498313, “The Sac10b homolog from Sulfolobus islandicus is an RNA chaperone”.

Columns and labels:
[1] = biological target: T1, Sis10b K16A (Sulfolobus islandicus REY15A, UniProt F0NHH1 1-97, K16A); test: EMSA; 37°C; slightly weaker than dsRNA; EMSA: 20 mM HEPES-NaOH pH 7.0, 1 mM DTT, 100 ug/ml BSA, 6% glycerol, 30 min at 25, 37 or 55°C; gel in 0.5x TBE at the same temperature; settings: protein: recombinant; tags: none; chain copies: 2; label: 5' 32P; single strand
T1 sequence: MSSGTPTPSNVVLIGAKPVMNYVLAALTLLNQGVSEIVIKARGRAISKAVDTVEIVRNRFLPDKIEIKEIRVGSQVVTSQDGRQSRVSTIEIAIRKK

[2] = biological target: T2, Sis10b K17R (Sulfolobus islandicus REY15A, UniProt F0NHH1 1-97, K17R); test: as above; settings: protein: recombinant; tags: none; chain copies: 2; label: 5' 32P; single strand
T2 sequence: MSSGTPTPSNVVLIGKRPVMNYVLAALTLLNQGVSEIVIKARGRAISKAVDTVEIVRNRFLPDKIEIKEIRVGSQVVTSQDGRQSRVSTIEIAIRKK

[3] = biological target: T3, Sis10b K17A (Sulfolobus islandicus REY15A, UniProt F0NHH1 1-97, K17A); test: EMSA; 55°C; no ssRNA preference over dsRNA; EMSA: 20 mM HEPES-NaOH pH 7.0, 1 mM DTT, 100 ug/ml BSA, 6% glycerol, 30 min at 25, 37 or 55°C; gel in 0.5x TBE at the same temperature; settings: protein: recombinant; tags: none; chain copies: 2; label: 5' 32P; single strand
T3 sequence: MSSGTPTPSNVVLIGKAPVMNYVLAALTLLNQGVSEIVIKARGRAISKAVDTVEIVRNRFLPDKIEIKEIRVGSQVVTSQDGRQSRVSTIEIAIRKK

[4] = biological target: T1, Sis10b K16A; test: EMSA; 37°C; 1.1-1.7-fold better than ssRNA; EMSA: 20 mM HEPES-NaOH pH 7.0, 1 mM DTT, 100 ug/ml BSA, 6% glycerol, 30 min at 25, 37 or 55°C; gel in 0.5x TBE at the same temperature; settings: protein: recombinant; tags: none; chain copies: 2; label: 5' 32P on top strand; blunt
[5] = biological target: T3, Sis10b K17A; test: as above; settings: protein: recombinant; tags: none; chain copies: 2; label: 5' 32P on top strand; blunt
[6] = biological target: T4, Sis10b ΔN12 (Sulfolobus islandicus REY15A, UniProt F0NHH1 13-97, del1-12); test: EMSA; 55°C; EMSA: 20 mM HEPES-NaOH pH 7.0, 1 mM DTT, 100 ug/ml BSA, 6% glycerol, 30 min at 25, 37 or 55°C; gel in 0.5x TBE at the same temperature; settings: protein: recombinant; tags: none; chain copies: 2; label: 5' 32P on top strand; blunt
T4 sequence: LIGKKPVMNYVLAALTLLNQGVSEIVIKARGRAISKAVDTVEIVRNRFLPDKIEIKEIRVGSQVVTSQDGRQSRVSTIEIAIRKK

[7] = biological target: T2, Sis10b K17R; test: as above; settings: protein: recombinant; tags: none; chain copies: 2; label: 5' 32P on top strand; blunt
[8] = biological target: T5, Sis10b M20E/L24E/L27E/F60E (Sulfolobus islandicus REY15A, UniProt F0NHH1 1-97, M20E;L24E;L27E;F60E); test: as above; settings: protein: recombinant; tags: none; chain copies: 2; label: 5' 32P on top strand; blunt
T5 sequence: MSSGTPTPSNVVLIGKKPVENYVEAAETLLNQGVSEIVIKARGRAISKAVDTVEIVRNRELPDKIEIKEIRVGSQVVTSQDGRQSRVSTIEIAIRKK

## UGACUUCCGCGCGUGAGCUCGAUUCCACAUACCCUAAAUCGCUC (ssRNA) [44-nt ssRNA (t)]
[1]
  binding result: binds
[2]
  binding result: binds
[3]
  binding result: binds

B1: 44-bp dsRNA (dsRNA)
RNA 1: UGACUUCCGCGCGUGAGCUCGAUUCCACAUACCCUAAAUCGCUC
RNA 2: GAGCGAUUUAGGGUAUGUGGAAUCGAGCUCACGCGCGGAAGUCA
[4]
  binding result: binds
[5]
  binding result: binds
[6]
  Kd: ~98.1 nM
[7]
  Kd: ~28.2 nM
[8]
  Kd: ~82.3 nM
